Consider four molecules from US20190375799A1 (Affibody, published 2019).

Where no end group is shown, it is not given here. The star is where a group is joined. Mal‑DOTA = maleimido-mono-amide-DOTA, O=C(O)CN1CCN(CC(=O)O)CCN(CC(=O)NCCN2C(=O)CC(*)C2=O)CCN(CC(=O)O)CC1; maleimide‑DOTA = maleimide-DOTA

In test [1] the target is T1, albumin from cynomolgus monkey (cynomolgus monkey, UniProt A2V9Z4 25-608).
T1 construct: also called CSA
The test is described as follows: SPR (Biacore 2000): cynomolgus albumin immobilised to 1046 RU, PEP08296 injected at 40 nM for 5 min, then HBS-EP. The protocol: (§1) The albumin binding polypeptides were injected at a constant flow-rate of 50 μl/min for 5 minutes, followed by injection of HBS-EP for 60 minutes. The surfaces were regenerated with one injection of 25 μl HCl, 10 mM. All samples were run in duplicates.
(§2) After subtraction of reference surface and buffer injection, curves were fitted to a 1:1 (Langmuir) binding model using BIAevaluation software with correction for mass transfer and with RUmax set as a local parameter.
(Surface plasmon resonance follows binding to a sensor surface in real time, without labels.)

Test [2] has as its target T2, albumin from mouse (mouse, UniProt P07724 25-608).
T2 construct: also called MSA
In words: SPR (Biacore 2000): mouse albumin immobilised to 858 RU, PEP08296 injected at 40 nM for 5 min, then HBS-EP. The protocol:
as §1, §2

The target of test [3] is T3, albumin from rat (rat, UniProt P02770 25-608).
T3 construct: also called RSA
The test is described as follows: SPR (Biacore 2000): rat albumin immobilised to 831 RU, PEP08296 injected at 40 nM for 5 min, then HBS-EP. The protocol:
as §1, §2

Test [4] has as its target T4, albumin from dog (dog, UniProt P49822 25-608).
T4 construct: also called DSA
The test is described as follows: SPR (Biacore 2000): dog albumin immobilised to 1053 RU, PEP08296 injected at 40 nM for 5 min, then HBS-EP. The protocol: as §1, §2

Test [5] addresses T5, human serum albumin (human, UniProt P02768 25-609).
T5 construct: In the purification steps HSA-Sepharose (GE Healthcare) was used instead of ALBUCULT; also called HSA; ALBUCULT (Novozymes)
In words: SPR (Biacore 2000): human albumin immobilised to 1130 RU, PEP08296 injected at 40 nM for 5 min, then HBS-EP. The protocol:
as §1, §2

Test [6] addresses T5, human serum albumin. In words: SPR, Biacore 2000, HSA immobilised.
For test [7], the target named is T1, albumin from cynomolgus monkey. The test is described as follows: SPR (Biacore 2000): cynomolgus albumin immobilised to 1046 RU, PEP06923 injected at 40 nM for 5 min, then HBS-EP. The protocol:
as §1, §2

Test [8] concerns the target T2, albumin from mouse. In words: SPR (Biacore 2000): mouse albumin immobilised to 858 RU, PEP06923 injected at 40 nM for 5 min, then HBS-EP. The protocol:
as §1, §2

The target in test [9] is T3, albumin from rat. The test is described as follows: SPR (Biacore 2000): rat albumin immobilised to 831 RU, PEP06923 injected at 40 nM for 5 min, then HBS-EP. The protocol:
as §1, §2

The target of test [10] is T4, albumin from dog. In words: SPR (Biacore 2000): dog albumin immobilised to 1053 RU, PEP06923 injected at 40 nM for 5 min, then HBS-EP. The protocol:
as §1, §2

For test [11], the target named is T1, albumin from cynomolgus monkey. The test is described as follows: SPR (Biacore 2000): cynomolgus albumin immobilised to 1046 RU, PEP07986 injected at 40 nM for 5 min, then HBS-EP. The protocol:
as §1, §2

T1 sequence (A2V9Z4 25-608 limits assumed): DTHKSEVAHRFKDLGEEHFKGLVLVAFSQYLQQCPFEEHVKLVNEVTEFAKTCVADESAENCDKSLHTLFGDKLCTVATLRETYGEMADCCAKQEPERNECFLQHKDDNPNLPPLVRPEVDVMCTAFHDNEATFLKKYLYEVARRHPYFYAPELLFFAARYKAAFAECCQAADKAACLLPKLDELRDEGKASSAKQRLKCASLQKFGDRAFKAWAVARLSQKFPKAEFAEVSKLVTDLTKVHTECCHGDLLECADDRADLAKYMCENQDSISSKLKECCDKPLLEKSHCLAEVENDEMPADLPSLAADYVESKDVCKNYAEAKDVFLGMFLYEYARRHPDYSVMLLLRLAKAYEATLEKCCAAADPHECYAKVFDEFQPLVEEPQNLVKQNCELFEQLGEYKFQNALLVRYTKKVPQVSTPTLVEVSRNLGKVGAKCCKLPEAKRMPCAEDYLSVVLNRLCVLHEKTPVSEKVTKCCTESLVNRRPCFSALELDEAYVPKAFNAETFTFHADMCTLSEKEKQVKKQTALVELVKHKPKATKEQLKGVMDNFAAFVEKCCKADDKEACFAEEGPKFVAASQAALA
T4 sequence (P49822 25-608 limits assumed): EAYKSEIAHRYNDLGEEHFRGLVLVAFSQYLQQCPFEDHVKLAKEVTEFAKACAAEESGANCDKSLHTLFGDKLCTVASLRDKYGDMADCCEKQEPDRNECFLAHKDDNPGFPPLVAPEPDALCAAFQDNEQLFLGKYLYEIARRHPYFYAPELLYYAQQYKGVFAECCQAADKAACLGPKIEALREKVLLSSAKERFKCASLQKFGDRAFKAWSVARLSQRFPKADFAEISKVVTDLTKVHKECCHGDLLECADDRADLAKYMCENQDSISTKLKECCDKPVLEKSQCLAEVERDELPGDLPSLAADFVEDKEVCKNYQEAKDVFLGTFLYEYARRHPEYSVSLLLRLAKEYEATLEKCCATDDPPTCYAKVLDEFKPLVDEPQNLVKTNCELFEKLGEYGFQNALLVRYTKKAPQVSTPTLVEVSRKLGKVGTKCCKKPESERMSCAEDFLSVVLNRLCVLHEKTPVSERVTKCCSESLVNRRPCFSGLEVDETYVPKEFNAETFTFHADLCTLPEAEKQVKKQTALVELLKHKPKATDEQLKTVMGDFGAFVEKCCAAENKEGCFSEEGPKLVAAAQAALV
T2 sequence (P07724 25-608 limits assumed): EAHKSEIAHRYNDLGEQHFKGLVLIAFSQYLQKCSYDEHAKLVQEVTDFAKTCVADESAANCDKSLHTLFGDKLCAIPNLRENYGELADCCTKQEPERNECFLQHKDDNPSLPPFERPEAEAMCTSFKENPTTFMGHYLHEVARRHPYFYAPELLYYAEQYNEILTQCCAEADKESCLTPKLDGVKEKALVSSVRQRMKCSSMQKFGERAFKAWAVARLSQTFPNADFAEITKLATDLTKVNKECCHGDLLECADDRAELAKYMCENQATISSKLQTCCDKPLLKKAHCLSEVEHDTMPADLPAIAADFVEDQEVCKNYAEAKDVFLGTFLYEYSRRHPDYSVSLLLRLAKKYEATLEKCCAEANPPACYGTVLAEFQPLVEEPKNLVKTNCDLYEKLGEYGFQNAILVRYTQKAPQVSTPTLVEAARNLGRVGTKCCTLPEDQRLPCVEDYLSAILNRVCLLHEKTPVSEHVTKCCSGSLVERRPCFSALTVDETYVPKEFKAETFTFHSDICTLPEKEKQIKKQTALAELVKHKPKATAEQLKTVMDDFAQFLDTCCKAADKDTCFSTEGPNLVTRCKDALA
T3 sequence (P02770 25-608 limits assumed): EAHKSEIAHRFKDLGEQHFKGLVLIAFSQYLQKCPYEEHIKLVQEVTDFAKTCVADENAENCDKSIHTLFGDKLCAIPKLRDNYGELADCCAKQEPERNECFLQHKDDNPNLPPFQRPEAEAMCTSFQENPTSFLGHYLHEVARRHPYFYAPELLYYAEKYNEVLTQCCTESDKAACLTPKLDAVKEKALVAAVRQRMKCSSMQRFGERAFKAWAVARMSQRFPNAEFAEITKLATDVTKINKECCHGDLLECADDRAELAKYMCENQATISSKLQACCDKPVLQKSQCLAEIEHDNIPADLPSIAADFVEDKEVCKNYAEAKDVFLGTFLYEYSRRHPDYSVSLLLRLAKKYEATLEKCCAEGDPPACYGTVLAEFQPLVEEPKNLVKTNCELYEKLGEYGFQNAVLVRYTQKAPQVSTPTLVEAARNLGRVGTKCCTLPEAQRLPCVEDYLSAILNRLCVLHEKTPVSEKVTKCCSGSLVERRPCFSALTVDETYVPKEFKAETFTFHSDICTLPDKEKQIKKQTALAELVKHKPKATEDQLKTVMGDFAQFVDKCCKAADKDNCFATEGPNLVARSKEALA

B1: PEP08296 (designed binder)
chain: GSLAEAKEAANAELDC(Mal‑DOTA)YGVSDFYKRLIDKAKTVEGVEALKDAILAALPG
notes: also called DOTA-conjugated PEP08185
In the case of B1, the binding result in test [1], in [2], in test [3], in test [4] and in test [5] was “binds” throughout.

B2: PEP07975 (designed binder)
chain: ALASAKEAANAELDC(maleimide‑DOTA)YGVSDFYKRLIDKAKTVEGVEALKDAILAALP-NH2
notes: Made by solid phase peptide synthesis; also called DOTA-conjugated PEP07834; maleimide-DOTA-conjugated PEP07834-amide
B2: the binding result in test [6] is “binds”.

B3: PEP06923 (designed binder)
chain: GSSLAEAKVLANRELDKYGVSDFYKRLINKAKTVEGVEALKLHILAALP
notes: Expressed as MGSS-[PP###]; also called non-inventive polypeptide
As for B3, the binding result in [7], in test [8], in test [9] and in test [10] was “binds” in each case.

B4: PEP07986 (designed binder)
chain: GSLAEAKEAANAELDSYGVSDFYKRLIDKAKTVEGVEALKDAILAALP
In the case of B4, the binding result in test [11] is on record as “binds”.
